Laboratory results reported in patent US20240279318A1 (NANJING LEGEND BIOTECH, published 2024).

Experiments:
[1] = target: T1, AFP158/HLA-A*02:01 complex (human); assay: SPR, crude scFv captured, pMHC analyte;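 further: complex injected at several concentrations over the chip, association phase then running buffer for dissociation, KD derived from on- and off-rates computed from both curves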
T1 construct: flowed as analyte in SPR

[2] = target: T2, AFP158/HLA-A*02:01 complex (human); assay: SPR; vs AS170036 VL1VH1;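 further: crude scFv captured on sensor chip, peptide–HLA complex flowed over at several concentrations, KD estimated from association and dissociation kinetic rates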
T2 construct: biotinylated on the BSP by BirA for ELISA and panning; also called biotinylated AFP158/HLA-A*02:01 complex; Bio-AFP158

[3] = target: T2, AFP158/HLA-A*02:01 complex; assay: SPR, crude scFv captured;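 further: Peptide–MHC complex flowed at several concentrations over sensorchip-captured scFv, Kd derived from on- and off-rates obtained from the association and dissociation curves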

Binder	Kd [1] [nM]	koff [1] [s⁻¹]	kon [1] [M⁻¹ s⁻¹]	Affinity increase [2] [fold]	Kd [3] [nM]
AS170036 VL1VH1 HG56A (scFv) scFv: QSALTQPRSVSGSPGQSVTISCAGTSSDVGSENYVSWYQQHPGKAPKLMIYQVNKRASGVPDRFSGSKSGNTASLTISGLQAEDEADYYCASYRSSDHNIVFGGGTKLTVLGGGGSGGGGSGGGGSEVQLVESGGGLVQPGGSLRLSCAASGFTFSSYAMSWVRQAPGKGLEWVSTINSGTASPYYADSVKGRFTISRDNSKNTLYLQMNSLRAEDTAVYYCAKNFFDGSWFLGPPAMDYWGQGTLVTVSSHHHHHH	–	–	–	1.4	160
AS170036 VL1VH1 HD102G (scFv) scFv: QSALTQPRSVSGSPGQSVTISCAGTSSDVGSENYVSWYQQHPGKAPKLMIYQVNKRASGVPDRFSGSKSGNTASLTISGLQAEDEADYYCASYRSSDHNIVFGGGTKLTVLGGGGSGGGGSGGGGSEVQLVESGGGLVQPGGSLRLSCAASGFTFSSYAMSWVRQAPGKGLEWVSTINSGTGSPYYADSVKGRFTISRDNSKNTLYLQMNSLRAEDTAVYYCAKNFFGGSWFLGPPAMDYWGQGTLVTVSSHHHHHH	–	–	–	0.1	2500
AS170036 VL1VH1 HD102E (scFv) scFv: QSALTQPRSVSGSPGQSVTISCAGTSSDVGSENYVSWYQQHPGKAPKLMIYQVNKRASGVPDRFSGSKSGNTASLTISGLQAEDEADYYCASYRSSDHNIVFGGGTKLTVLGGGGSGGGGSGGGGSEVQLVESGGGLVQPGGSLRLSCAASGFTFSSYAMSWVRQAPGKGLEWVSTINSGTGSPYYADSVKGRFTISRDNSKNTLYLQMNSLRAEDTAVYYCAKNFFEGSWFLGPPAMDYWGQGTLVTVSSHHHHHH	–	–	–	1.2	190
AS170036 VL1VH1 HD102A (scFv) scFv: QSALTQPRSVSGSPGQSVTISCAGTSSDVGSENYVSWYQQHPGKAPKLMIYQVNKRASGVPDRFSGSKSGNTASLTISGLQAEDEADYYCASYRSSDHNIVFGGGTKLTVLGGGGSGGGGSGGGGSEVQLVESGGGLVQPGGSLRLSCAASGFTFSSYAMSWVRQAPGKGLEWVSTINSGTGSPYYADSVKGRFTISRDNSKNTLYLQMNSLRAEDTAVYYCAKNFFAGSWFLGPPAMDYWGQGTLVTVSSHHHHHH	–	–	–	0.4	590

Next, values leading:

Kd [1] [nM]	koff [1] [s⁻¹]	kon [1] [M⁻¹ s⁻¹]	Affinity increase [2] [fold]	Kd [3] [nM]	Binder
21	0.0035	170000	–	–	AS170036 VL1VH1-57M98I108S (scFv, also called 81-AS170036 VL1VH1-57M98I108S) scFv: QSALTQPRSVSGSPGQSVTISCAGTSSDVGSENYVSWYQQHPGKAPKLMIYQVNKRASGVPDRFSGSKSGNTASLTISGLQAEDEADYYCASYRSSDINIVFGGGTKLTVLGGGGSGGGGSGGGGSEVQLVESGGGLVQPGGSLRLSCAASGFTFSSYAMSWVRQAPGKGLEWVSTINSGTGMPYYADSVKGRFTISRDNSKNTLYLQMNSLRAEDTAVYYCAKNFFDGSWFLSPPAMDYWGQGTLVTVSSHHHHHH
–	–	–	0.1	1900	AS170036 VL1VH1 HD102I (scFv) scFv: QSALTQPRSVSGSPGQSVTISCAGTSSDVGSENYVSWYQQHPGKAPKLMIYQVNKRASGVPDRFSGSKSGNTASLTISGLQAEDEADYYCASYRSSDHNIVFGGGTKLTVLGGGGSGGGGSGGGGSEVQLVESGGGLVQPGGSLRLSCAASGFTFSSYAMSWVRQAPGKGLEWVSTINSGTGSPYYADSVKGRFTISRDNSKNTLYLQMNSLRAEDTAVYYCAKNFFIGSWFLGPPAMDYWGQGTLVTVSSHHHHHH
–	–	–	0.1	1700	AS170036 VL1VH1 HD102L (scFv) scFv: QSALTQPRSVSGSPGQSVTISCAGTSSDVGSENYVSWYQQHPGKAPKLMIYQVNKRASGVPDRFSGSKSGNTASLTISGLQAEDEADYYCASYRSSDHNIVFGGGTKLTVLGGGGSGGGGSGGGGSEVQLVESGGGLVQPGGSLRLSCAASGFTFSSYAMSWVRQAPGKGLEWVSTINSGTGSPYYADSVKGRFTISRDNSKNTLYLQMNSLRAEDTAVYYCAKNFFLGSWFLGPPAMDYWGQGTLVTVSSHHHHHH
